According to the supplement of paper PMC10126150:
± gives the standard deviation of the averaged measurements.

Test system: ATP
Assay: switch fluorescence ratio, 500 uM ATP over buffer (Cy3 cluster intensity, sum of 5 cycles each) (fold (ratio)); higher = stronger signal-on switching upon ATP binding; sequences stand for … in TCGTCGGCAGCGTCAGATGTGTATAAGAGACAGTTTTTTTTTTTTTTTTTTTTTTTTT…TC
Conditions: aptamer strand: ATP DNA aptamer (quencher-CACCTGGGGGAGTATTGCGGAGGAAGG + anchor), 100 nM annealed; ATP concentration: 500 uM
Summary of the method: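 Exposure to 500 uM ATP lasted 15 min at 22 °C before imaging, and a selection-buffer image was taken beforehand, for Cy3-labelled switching-strand clusters on a modified Illumina MiSeq flow-cell annealed to 100 nM quencher-labelled ATP aptamer. Five buffer/ATP cycles were run with NaOH stripping and re-annealing between them. The fluorescence ratio per cluster is summed target-cycle over summed buffer-cycle Cy3 intensity, averaged per switch-domain sequence. Clusters outside 100-1000 RFU were excluded.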

| Sequence | switch fluorescence ratio |
| --- | --- |
| GGGCATAACT | 1.04 ± 0.044 |
| ATTGGAAAGG | 0.985 ± 0.031 |
| TAATTATATT | 0.988 ± 0.023 |
| TGCAAGAAGT | 1.022 ± 0.0069 |
| ACATGGGGGT | 1.01 ± 0.014 |
| ATTAAATCGG | 1.01 ± 0.016 |
| ATTTTTTAGA | 0.989 ± 0.021 |
| AGCCTGACTG | 1.12 ± 0.033 |
| AGGATTTT | 0.955 ± 0.066 |
| CAGGGGATTG | 1.11 ± 0.14 |
| TTTGCCTCGT | 1.04 ± 0.025 |
| AGTGAGTCCG | 0.996 ± 0.01 |
| TGAGTAGGGC | 0.948 ± 0.041 |
| TTATCTTTGT | 0.9758 ± 0.007 |
| ATATTGTACG | 1.03 ± 0.022 |
| TTTTACAGCG | 1 ± 0.036 |
| GAAATTGTTT | 0.991 ± 0.015 |
| GGTTTAGACT | 0.99 ± 0.036 |
| CAATAGCTAT | 1.06 ± 0.022 |
| GTAGCAAGGG | 2.38 ± 1.9 |
| GGATTCAGCA | 1.01 ± 0.022 |
| AATCAAGAGT | 1.028 ± 0.0031 |
| ATTTTTGGC | 1.03 ± 0.06 |

| Sequence | switch fluorescence ratio |
| --- | --- |
| AAAATAGCCG | 1.04 ± 0.054 |
| GGGAAACTGA | 1.04 ± 0.0027 |
| AACTTGGGGG | 1.021 ± 0.0048 |
| TTACGTTAAT | 1.18 ± 0.095 |
| GCATCCCGAG | 1.02 ± 0.025 |
| TCTGTGTTTT | 1.04 ± 0.038 |
| GCAGATGGTT | 1.01 ± 0.015 |
| AAGTGCAAGC | 1.04 ± 0.027 |
| AAAGACAGTT | 1.01 ± 0.049 |
| GCGAGGAATA | 1.2 ± 0.079 |
| AAAGATTAGT | 0.9713 ± 0.0097 |
| ATGAGGGATT | 0.965 ± 0.011 |
| AAGTAGGTGC | 1.13 ± 0.02 |
| GAAGGTTGCG | 1.03 ± 0.056 |
| GGTGGTGGGA | 0.977 ± 0.04 |
| AAAGAGGAAG | 0.987 ± 0.02 |
| TATGGACTAG | 1.01 ± 0.025 |
| GAGGGGGCCG | 0.996 ± 0.034 |
| TTTCCTGGTA | 0.9817 ± 0.0073 |
| TTAGAACAAG | 1.01 ± 0.019 |
| TCCGGAGTTT | 2.55 ± 0.38 |
| TTTCGTAGGA | 1.28 ± 0.35 |
| TCGCAAATTT | 1.3 ± 0.12 |

| Sequence | switch fluorescence ratio |
| --- | --- |
| AAGTGTGTTT | 1 ± 0.031 |
| TGCAGACAGA | 1.02 ± 0.055 |
| GTCAGATAGG | 1.004 ± 0.008 |
| TATTTATTTT | 1.01 ± 0.03 |
| TACCGGGGGC | 1.14 ± 0.09 |
| GTTAGCCGAA | 1.05 ± 0.032 |
| TCGGCGGGGT | 1.75 ± 1.3 |
| CGTCAGGCTT | 0.987 ± 0.052 |
| TCAGGAATGG | 1.055 ± 0.0069 |
| ATGTGATTGG | 1.01 ± 0.027 |
| CTGTTATTGT | 0.972 ± 0.024 |
| GGGGGTGAAG | 0.971 ± 0.016 |
| AAACGAGAAC | 3.04 ± 2.8 |
| TTCTGTTCTG | 1.01 ± 0.039 |
| GCTATGGGCG | 1.03 ± 0.033 |
| TAAGATATTT | 0.9715 ± 0.0094 |
| GCGAATATGC | 1.1 ± 0.038 |
| TTTACGCGGT | 1.03 ± 0.015 |
| TTGAACTTTG | 0.978 ± 0.061 |
| GGGATACGGT | 1.0248 ± 0.00074 |
| CTTGGTGCTT | 0.974 ± 0.021 |
| CATGTGATTT | 0.992 ± 0.023 |
| ACTTAATTTG | 1 ± 0.044 |

| Sequence | switch fluorescence ratio |
| --- | --- |
| TTTTGTGGTG | 1.001 ± 0.007 |
| ATATAATCAA | 0.98075 ± 0.00037 |
| AGATGGGGGA | 0.983 ± 0.026 |
| TGCGATAGAA | 0.994 ± 0.043 |
| AGTTTTAGCC | 1 ± 0.027 |
| GAAGGTACGG | 1.04 ± 0.061 |
| TTGATGTGGG | 0.975 ± 0.029 |
| AAGGAGGGTT | 0.984 ± 0.025 |
| GACACTTGCT | 0.99 ± 0.035 |
| GTTCAACTCA | 0.993 ± 0.012 |
| CGTATGGTTG | 1.06 ± 0.09 |
| AAGGTCGTTT | 0.9768 ± 0.003 |
| TCGACTATTT | 1.04 ± 0.046 |
| TCGGTCTTTT | 0.974 ± 0.029 |
| TAAGTGGTT | 0.994 ± 0.011 |
| AGATATTTTG | 0.988 ± 0.039 |
| TTCTTATAGA | 1.0069 ± 1.4e-05 |
| AAGTCGGGGC | 1 ± 0.038 |
| ATTGTGTCTG | 1 ± 0.042 |
| TGTTTTTATT | 1.015 ± 0.0047 |
| CAATAAGTTT | 1.01 ± 0.043 |
| CTTAATCGGC | 1.09 ± 0.11 |
| TGAGGGGGAA | 1.03 ± 0.033 |

| Sequence | switch fluorescence ratio |
| --- | --- |
| TCTTATGGCC | 0.975 ± 0.018 |
| AGAATATTAG | 0.987 ± 0.037 |
| TTACGGGCTT | 0.989 ± 0.027 |
| TGATATTTGC | 0.969 ± 0.033 |
| GGTCCTGGGA | 1.02 ± 0.059 |
| TTAGGCACGC | 1.01 ± 0.023 |
| CCAAGAGGGC | 1.04 ± 0.023 |
| TTTTTTACTT | 1.03 ± 0.054 |
| TGCAAAAGGG | 1.024 ± 0.0074 |
| TACAAATTGT | 1.03 ± 0.025 |
| TCGTTCGTCT | 0.973 ± 0.039 |
| TATGTTACCT | 1.22 ± 0.05 |
| CGGTTGTTGG | 0.9787 ± 0.0058 |
| CTAAGCAGGG | 1.01 ± 0.016 |
| CAAGTTGGCG | 0.995 ± 0.099 |
| TTTTCAACGG | 1.01 ± 0.0017 |
| TGTGGTAAGG | 0.98472 ± 0.0006 |
| GGTGTGTTCT | 0.985 ± 0.011 |
| AGGACTAAGG | 0.98 ± 0.026 |
| ATAAAATCTA | 1.02 ± 0.061 |
| CGATGTTCAC | 1.05 ± 0.011 |
| GGGCGAAAAA | 0.987 ± 0.054 |
| AGATTAGTTC | 1.002 ± 0.0056 |

| Sequence | switch fluorescence ratio |
| --- | --- |
| GGGCGGGGGC | 1.02 ± 0.056 |
| GTATCAGGCC | 0.992 ± 0.01 |
| GCCAGGTTCC | 1.09 ± 0.034 |
| CATTGGGAGA | 0.984 ± 0.011 |
| ATGCTATGTG | 0.9752 ± 0.0055 |
| AGTGGCCGGG | 1.01 ± 0.027 |
| GGTTAAGAAC | 0.993 ± 0.019 |
| CTCGATGTGA | 1.05 ± 0.071 |
| TGTCGTAATT | 1 ± 0.011 |
| TACAGCACTG | 1.29 ± 0.15 |
| CGCGGCGTTC | 1.023 ± 0.0057 |
| AATGGCATCG | 1.02 ± 0.011 |
| AGGGAGTTGG | 0.995 ± 0.032 |
| TTGGTCGGG | 0.98 ± 0.044 |
| ACATAGAAAA | 1.01 ± 0.044 |
| ATGGTCTCTT | 0.987 ± 0.013 |
| TTTTTTGT | 0.982 ± 0.021 |
| GACCGTGGGG | 1 ± 0.027 |
| GGGATATAGG | 0.9937 ± 0.0021 |
| AAAACTAACG | 1.1 ± 0.037 |
| TGCTGAGACA | 1.01 ± 0.012 |
| GATTTTCATG | 1 ± 0.013 |
| TATAGCCGGG | 1 ± 0.069 |

| Sequence | switch fluorescence ratio |
| --- | --- |
| TTAAGAATTG | 1.04 ± 0.12 |
| ACAAAGGAGC | 1 ± 0.022 |
| CCAGGGGTCT | 1.22 ± 0.028 |
| TTTATACGGG | 1.02 ± 0.039 |
| TTATCTCATT | 1 ± 0.028 |
| TGTGGCACTT | 0.998 ± 0.022 |
| TTTAGCAAAC | 3.53 ± 0.95 |
| TATGTGTTTC | 1.18 ± 0.25 |
| TGGGTATCGT | 0.977 ± 0.029 |
| TGCAAGGTTA | 1.02 ± 0.051 |
| GGGAAGATTT | 0.992 ± 0.036 |
| GCTAAAAGGA | 0.975 ± 0.021 |
| ATGCCGATCG | 1.05 ± 0.021 |
| GGGGTTTTTC | 0.9786 ± 0.0085 |
| CTATGCGGAA | 1.06 ± 0.038 |
| TGGTGATGCA | 1.08 ± 0.11 |
| GAATTTAAGT | 1.009 ± 0.0048 |
| TGAGTCTCTG | 0.998 ± 0.012 |
| ACGGGGAAAG | 0.9916 ± 0.0019 |
